Reference: publication PMC7022249, “Biochemical and Structural Characterization of OXA-405, an OXA-48 Variant with Extended-Spectrum β-Lactamase Activity” (Microorganisms, 2019)

Tests used:
[1] = target: T1, OXA-405 β-lactamase (Serratia marcescens, UniProt A0A0F6P2I5); assay: steady-state hydrolysis kinetics (Km) with purified enzyme; format: biochemical
T1 construct: gene blaOXA-405

[2] = target: T1, OXA-405 β-lactamase; assay: IC50 with purified enzyme, […] benzylpenicillin as reporter substrate, […] min preincubation; format: biochemical
[3] = tested on: CC(=O)OCC1=C(C(=O)O)N2C(=O)[C@@H](NC(=O)Cc3cccs3)[C@H]2SC1; assay: steady-state hydrolysis kinetics (Km) with purified enzyme; format: biochemical, Serratia marcescens
[4] = tested on: CC1(C)S[C@@H]2[C@H](NC(=O)Cc3ccccc3)C(=O)N2[C@H]1C(=O)O; assay: as above; format: biochemical, Serratia marcescens
[5] = tested on: CC1(C)S[C@@H]2[C@H](NC(=O)[C@H](N)c3ccccc3)C(=O)N2[C@H]1C(=O)O; assay: as above; format: biochemical, Serratia marcescens
[6] = tested on: CO/N=C(\C(=O)N[C@@H]1C(=O)N2C(C(=O)O)=C(COC(C)=O)CS[C@H]12)c1csc(N)n1; assay: as above; format: biochemical, Serratia marcescens
[7] = tested on: C[C@@H](O)[C@H]1C(=O)N2C(C(=O)O)=C(SCCN=CN)C[C@H]12; assay: as above; format: biochemical, Serratia marcescens
[8] = tested on: C[C@@H](O)[C@H]1C(=O)N2C(C(=O)O)=C(S[C@@H]3CN[C@H](C(=O)Nc4cccc(C(=O)O)c4)C3)[C@H](C)[C@H]12; assay: as above; format: biochemical, Serratia marcescens
[9] = tested on: Cc1onc(-c2ccccc2)c1C(=O)N[C@@H]1C(=O)N2[C@@H]1SC(C)(C)[C@@H]2C(=O)O; assay: as above; format: biochemical, Serratia marcescens

T1 sequence (A0A0F6P2I5 23-261 limits assumed): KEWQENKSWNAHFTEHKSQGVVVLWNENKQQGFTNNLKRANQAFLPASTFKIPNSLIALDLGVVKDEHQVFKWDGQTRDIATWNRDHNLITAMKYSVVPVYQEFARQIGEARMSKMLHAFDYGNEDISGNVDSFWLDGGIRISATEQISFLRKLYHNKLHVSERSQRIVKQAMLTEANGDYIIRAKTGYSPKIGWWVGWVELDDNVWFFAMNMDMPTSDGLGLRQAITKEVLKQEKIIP

CC(C)(O/N=C(\C(=O)N[C@@H]1C(=O)N2C(C(=O)[O-])=C(C[n+]3ccccc3)CS[C@H]12)c1csc(N)n1)C(=O)O [Ceftazidime]
Km [1]: > 1000 µM

O=C(O)[C@H]1/C(=C/CO)O[C@@H]2CC(=O)N21 [Clavulanic acid]
IC50 [2]: 6 µM

C[C@]1(Cn2ccnn2)[C@H](C(=O)O)N2C(=O)C[C@H]2S1(=O)=O [Tazobactam]
IC50 [2]: 1.8 µM

OXA-405 β-lactamase (Serratia marcescens)
Km [3]: 18 µM
kcat [3]: 8 s⁻¹
kcat/Km [3]: 444000 M⁻¹ s⁻¹
Km [4]: 18 µM
kcat [4]: 12 s⁻¹
kcat/Km [4]: 667000 M⁻¹ s⁻¹
Km [5]: 212 µM
kcat [5]: 29 s⁻¹
kcat/Km [5]: 137000 M⁻¹ s⁻¹
Km [6]: 369 µM
kcat [6]: 9.7 s⁻¹
kcat/Km [6]: 26000 M⁻¹ s⁻¹
Km [7]: 532 µM
kcat [7]: 0.1 s⁻¹
kcat/Km [7]: 200 M⁻¹ s⁻¹
Km [8]: 88 µM
kcat [8]: 0.04 s⁻¹
kcat/Km [8]: 400 M⁻¹ s⁻¹
Km [9]: 69 µM
kcat [9]: 19 s⁻¹
kcat/Km [9]: 275000 M⁻¹ s⁻¹
